Among the data in paper PMC3944073 are Kd values, retold here.

This test addresses GFP-β-DGNLS fusion protein. The experiment in a line: AlphaScreen or HTRF; ALPHAScreen; His6-tagged GFP-β-DG-NLS at a fixed amount per well with increasing GST-ezrin, GST-IMPα2/β1 or GST alone (0-60 nM); nickel chelate acceptor beads and streptavidin donor beads; room temperature; apparent dissociation constants from sigmoidal fits. Background: Bead proximity is the source of the signal in Alpha formats.

With “GST-ezrin (mouse) (from UniProt P26040 1-586) (natural protein)”, the Kd turned out to be 2.22 nM.
